Measured values as given in patent publication US20260259223A1 (NORDIC BIOSCIENCE A S, published 2026).
Primed or numbered codes have the meaning given here. Where no end group is shown, it is not given here. Biotin′ = not defined here

T1: Elongated standard peptide (Elongated selection peptide) QDSGPEYADVV (human)
T1 construct: also called elongated peptide
T1 peptide: QDSGPEYADVV

T2: Non-sense standard peptide YRDDLKKLLE
T2 construct: also called non-sense peptide
T2 peptide: YRDDLKKLLE

T3: Truncated standard peptide (Truncated selection peptide) SGPEYADVV (human)
T3 construct: also called truncated peptide
T3 peptide: SGPEYADVV

T4: Non-sense coating peptide YRDDLKKLLE-Biotin
T4 construct: also called non-sense coater
T4 peptide: YRDDLKKLLE-{Biotin′}

B1: monoclonal antibody clone NBH-306-11 8E7-2C11-1F10-2C10 (antibody, mouse IgG1, kappa, V domains shown)
VH: EVKLVESGGDLVKPGGSLKLSCAASGFTFTSYAMSWVRQTPEKRLEWVASVTSGGTHYLDSVKGRFTISRDIARNILYLQMSSLRSEDTAMYFCARGVSFAYWGQGTLVTVSA
VL: DIVMTQSQKFMSTSVGDRVSVTCKASQNVGTDVVWYQQRPGQSPKALMYSASYRYSGVPDRFTGSGSGTDFTLTISNVQSEDLAEYFCQHYDNYPLTFGAGTKLELKR
notes: also called the mAb; C6A6 assay antibody
B2: Standard peptide (Selection peptide) DSGPEYADVV (peptide)
peptide: DSGPEYADVV
notes: Synthetic peptide from Genscript; also called C6A6

What was measured:
[1] = biological target: T1, Elongated standard peptide (Elongated …); test: competitive CLIA/ELISA (signal inhibition by two-fold diluted peptide)
Method: (§1) The development of a competitive chemiluminescence immunoassay (CLIA) targeting the C6A6 target sequence included several preliminary optimizing experiments where reagents, concentrations, incubation-time and -temperature were analyzed by several tests. The final C6A6 competitive ELISA procedure was as follows: A 96-well streptavidin-coated white microplate (Greiner Bio-One, Kremsmünster, Austria) was coated with 3 ng/mL biotinylated synthetic peptide ([…]-K-Biotin (SEQ ID NO: 18)) dissolved in assay buffer (10 mM phosphate buffered saline (PBS), 1% bovine serum albumin, 0.1% Tween-20, 0.36% Bronidox, 4 g/L NaCl, adjusted to pH 7.4 at 20° C.) and incubated for 30 min at 20° C. with constant shaking (300 rpm) in darkness. Next, 20 μL/well of standard peptide (100 ng/ml) and samples were added to the appropriate wells, followed by the addition of 100 μL/well of HRP-labelled antibody (generated as described above) diluted in assay buffer to the concertation of 200 ng/ml and incubated for 1 h at 20° C. with constant shaking (300 rpm) in darkness. After each incubation step, wells were washed five times with standard washing buffer (20 mM Tris, 50 mM NaCl, pH 7.2). […] The relative light units were measured at all wavelengths within 5 min on a microplate luminometer reader (SpectraMax M5, Molecular Devices, CA, USA). […] Data were analyzed using the SoftMax Pro version 7.0.3 software.
(§2) Two-fold dilutions of four human serum and two rat serum samples were used to assess linearity. Linearity was calculated as a percentage of recovery of the undiluted sample. Antibody specificity was calculated as percentage of signal inhibition by two-fold diluted standard peptide ([…] (SEQ ID NO: 1)), elongated peptide ([…] (SEQ ID NO: 2)), truncated peptide ([…] (SEQ ID NO: 3)), and non-sense peptide ([…] (SEQ ID NO: 17)). The intra- and inter-assay variation was determined by 10 independent runs of five quality controls and two kit controls run in double determinations.

[2] = biological target: T2, Non-sense standard peptide YRDDLKKLLE; test: as above
Method: as §1, §2

[3] = biological target: T3, Truncated standard peptide (Truncated …); test: as above
Method: as §1, §2

[4] = biological target: T4, Non-sense coating peptide …; test: CLIA/ELISA on a streptavidin plate coated with the non-sense coating peptide
[5] = biological target: B2; test: ELISA screening of hybridoma clones / specificity test
[6] = biological target: B1; test: competitive CLIA: the free standard peptide competes with plate-coated …-K-Biotin for the HRP-labelled mAb (200 ng/mL)
Method: The development of a competitive chemiluminescence immunoassay (CLIA) targeting the C6A6 target sequence included several preliminary optimizing experiments where reagents, concentrations, incubation-time and -temperature were analyzed by several tests. […] The relative light units were measured at all wavelengths within 5 min on a microplate luminometer reader (SpectraMax M5, Molecular Devices, CA, USA). […] Data were analyzed using the SoftMax Pro version 7.0.3 software.
as §2

| binding result [1] | binding result [2] | binding result [3] | binding result [4] | binding result [5] | IC50 [6] [ng/mL] | Binder |
| --- | --- | --- | --- | --- | --- | --- |
| no binding | no binding | no binding | no binding | binds | – | B1 |
| – | – | – | – | – | 3.86 | B2 |
